How the values were obtained:
Conditions in all cases: 20 nM; 72 h
MCF10A [1] = assay: 5+ nucleoli phenotype percent effect (relative to siNT 0% and siKIF11 100%); higher = more cells with five or more nucleoli
Experimental: (§1)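 After 72 h, cells were fixed and stained with Hoechst and anti-fibrillarin, and nucleoli per nucleus were counted with CellProfiler. Values are plate-adjusted percent effect for the one-nucleolus and 5+ nucleoli phenotypes, normalised to siNT (0%) and to the positive controls siNOL11 or siKIF11 (100%), as the mean of biological triplicates. Percent viability is the nuclei count relative to siNT.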

MCF10A [2] = assay: percent viability (nuclei count relative to siNT); higher = more viable cells
Experimental: as §1

MCF10A [3] = assay: one-nucleolus phenotype percent effect (relative to siNT 0% and siNOL11 100%); higher = more cells with one nucleolus (ribosome biogenesis inhibition)
Experimental: as §1

Sequence	5+ nucleoli phenotype percent effect (MCF10A [1]) [%]	percent viability (MCF10A [2]) [%]	one-nucleolus phenotype percent effect (MCF10A [3]) [%]
UCUCACCCCAACUCUGCCCCAG [hsa-miR-6784-3p]	44.3	56.5	-25.6
AUGUAGGGCUAAAAGCCAUGGG [hsa-miR-135b-3p]	10.5	14.3	6.54
AAUCCACGCUGAGCUUGGCAUC [hsa-miR-5092]	-4.16	22.3	14.7
GUCCUAGGAGGCUCCUCUG [hsa-miR-5571-3p]	-30	66.3	6.57
UAGGCACACUUAAAGUUAUAGC [hsa-miR-5582-5p]	-17.3	13.8	37.6
AUUGUCCCUCUCCCUUCCCAG [hsa-miR-4646-3p]	-1.47	50.3	-0.307
UGAUAUGUUUGAUAUAUUAGGU [hsa-miR-190a]	47.6	116	-13.2
UCAAGUGUCAUCUGUCCCUAG [hsa-miR-6513-3p]	42.1	126	-7.47
CAAGUCUUAUUUGAGCACCUGUU [hsa-miR-1264]	21.1	70	-11.7
UCCGGUUCUCAGGGCUCCACC [hsa-miR-671-3p]	-33.5	15.2	54.3
ACCGCCUGCCCAGUGA [hsa-miR-4485-5p]	24.1	70.4	-16.3
CUAGGUGGGGGGCUUGAAGC [hsa-miR-6802-5p]	-17	33.9	9.83
UGGGGCGGAGCUUCCGGAGGCC [hsa-miR-3180-3p]	0.481	12.9	8
UGGAGGAGAAGGAAGGUGAUG [hsa-miR-765]	16.3	21.1	26.5
GCAGGGACAGCAAAGGGGUGC [hsa-miR-211-3p]	-20.9	38.3	9.24
CUGGGGGUGGGGGGCUGGGCGU [hsa-miR-6803-5p]	16	86.6	-13.5
GUGUUAAUUAAACCUCUAUUUAC [hsa-miR-2053]	3.14	91.5	-1.87
CCUGGAAACACUGAGGUUGUG [hsa-miR-875-3p]	37.4	155	-26.1
UGAGGUGGUAGGAUGUAGA [hsa-miR-6134]	-36	12	40.7
ACCCUCGUCAGGUCCCCGGGG [hsa-miR-4655-3p]	6.66	56.9	-5.11

Sequence	5+ nucleoli phenotype percent effect (MCF10A [1]) [%]	percent viability (MCF10A [2]) [%]	one-nucleolus phenotype percent effect (MCF10A [3]) [%]
GUGCGGAACGCUGGCCGGGGCG [hsa-miR-6850-5p]	-19.5	45.3	5.11
AGAGGUAGGUGUGGAAGAA [hsa-miR-4458]	36.9	42.7	-20.7
GACUGACACCUCUUUGGGUGAA [hsa-miR-888-3p]	8.85	84.1	-18.1
AGGGGUGCUAUCUGUGAUUGA [hsa-miR-342-5p]	-43.4	10.5	15.1
GCUGGUGCAAAAGUAAUGGCGG [hsa-miR-548q]	-16.7	30.5	46
CCCUUCCCUCACUCUUCUCUCAG [hsa-miR-6734-3p]	13.3	44.4	-3.15
UGGUGGUUUACAAAGUAAUUCA [hsa-miR-876-3p]	-33.4	10.9	57.7
CUGGUACAGGCCUGGGGGACAG [hsa-miR-150-3p]	1.02	66.2	11
AGAAUUGUGGCUGGACAUCUGU [hsa-miR-219-2-3p]	-41.8	33.5	35.6
CUCUAGAGGGAAGCGCUUUCUG [hsa-miR-519b-5p]	-5.59	36.9	5.75
UCAAUCACUUGGUAAUUGCUGU [hsa-miR-4705]	38.7	53.1	-19.5
AGACCCUGCAGCCUUCCCACC [hsa-miR-4725-5p]	-16	36	17.4
AGCCUGUGCUUGUCCCUGCAG [hsa-miR-6811-3p]	-10.2	11.8	24.6
UGCAUGACCCUUCCCUCCCCAC [hsa-miR-6797-3p]	-8.08	31.8	1.95
CUGCAAUGUAAGCACUUCUUAC [hsa-miR-106a-3p]	-24.5	72.6	18.7
GGGGGGAUGUGCAUGCUGGUU [hsa-miR-4525]	-7.81	26.2	22.7
GAAGAUGGUGCUGUGCUGAGGAA [hsa-miR-4647]	-5.89	60.7	22.7
CAGAGGGAAUACAGAGGGCAAU [hsa-miR-6873-5p]	7.98	36.7	20
CAAAAACUGCAGUUACUUUUGU [hsa-miR-548am-3p]	42.5	96	-23.3
CGGGGCCAUGGAGCAGCCUGUGU [hsa-miR-6762-5p]	28.2	86.4	-11.4

Sequence	5+ nucleoli phenotype percent effect (MCF10A [1]) [%]	percent viability (MCF10A [2]) [%]	one-nucleolus phenotype percent effect (MCF10A [3]) [%]
AGGCAUUGACUUCUCACUAGCU [hsa-miR-1256]	2.63	32.9	1.57
AGGGUGUUUCUCUCAUCUCU [hsa-miR-609]	53.7	74	-18.6
AAACCUGUGUUGUUCAAGAGUC [hsa-miR-649]	34.7	113	-16.6
CCUAUUCUUGGUUACUUGCACG [hsa-miR-26a-1-3p]	-5.8	49.7	4.57
CCUCCAAAGGGAAGCGCUUUCUGUU [hsa-miR-519d-5p]	21.8	65.3	-10.6
AUGAGACUCAUGUAAAACAUCUU [hsa-miR-3672]	-24.8	52.6	34.3
AGGUGGAUGCAAUGUGACCUCA [hsa-miR-3165]	-22.9	3.1	1.14
UUUGGUCCCCUUCAACCAGCUA [hsa-miR-133b]	-11.4	52.5	16.1
UAACAGUCUACAGCCAUGGUCG [hsa-miR-132-3p]	-13.6	112	-5.13
GAGGCUGAAGGAAGAUGG [hsa-miR-4419b]	-30.7	58.3	21.1
ACUAAAGGAUAUAGAAGGUUUU [hsa-miR-4509]	5.5	103	-25.3
AAAUGGGUGGUCUGAGGCAA [hsa-miR-4506]	-7.36	46.9	36.1
UUGCAUGUCAGAUUGUAAUUCCC [hsa-miR-4666b]	-10.4	64.4	5.21
CCUGGCAUAUUUGGUAUAACUU [hsa-miR-4720-5p]	46.4	31.3	1.6
AAACUAAUCUCUACACUGCUGC [hsa-miR-3129-3p]	5.92	98.8	-4.83
UGCUGAGGUCCGGGCUGUGCC [hsa-miR-7160-5p]	-22.1	16.8	47.5
CCCAGCAGGACGGGAGCG [hsa-miR-4530]	43.3	111	-26.2
GUGAGGACUCGGGAGGUGG [hsa-miR-1224-5p]	-12.6	53.3	16.9
AGACCAUGGGUUCUCAUUGU [hsa-miR-591]	10.2	84.8	-3.76

— the supplement of paper PMC10899765
